Data on four molecules can be found in patent US20140206846A1 (published 2014).

One assay has as its target IL6 (human, UniProt P05231 30-212). The assay is described as follows: Biacore.
For another assay, the target named is T1, VEGF (human, UniProt P15692 27-191).
T1 chain: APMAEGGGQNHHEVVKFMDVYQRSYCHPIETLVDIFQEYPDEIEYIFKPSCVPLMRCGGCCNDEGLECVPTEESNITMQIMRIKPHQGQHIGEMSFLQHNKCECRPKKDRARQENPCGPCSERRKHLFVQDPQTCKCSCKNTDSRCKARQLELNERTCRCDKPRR
Description: Biacore. In general terms: Surface plasmon resonance follows binding to a sensor surface in real time, without labels.

The target of assay [1] is T2, human IL6 (human, UniProt P05231 30-212). The assay is described as follows: Biacore; captured on anti-LC.
The target of assay [2] is T2, human IL6. Description: Biacore; captured on GMCSF.
The target of a further assay is GST. The assay is described as follows: Biacore.
The target of a further assay is MBP. Description: Biacore.
Assay [3] has as its target T2, human IL6. The assay is described as follows: Biacore.

T2 sequence (P05231 30-212): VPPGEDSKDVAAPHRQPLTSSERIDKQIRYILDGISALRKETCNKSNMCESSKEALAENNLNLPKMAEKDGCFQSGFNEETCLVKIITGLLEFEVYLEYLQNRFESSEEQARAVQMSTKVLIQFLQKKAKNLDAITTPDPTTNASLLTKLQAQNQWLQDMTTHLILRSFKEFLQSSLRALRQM
Chain of IL6 (P05231 30-212): as above

B1: IL6 P (Fab, V domains shown)
VH: EVQLVESGGGLVQPGGSLRLSCAASGFTFSSYAMSWIRQAPGKGLEWIGQISGSGGSTVYNYNVLGRFTISRDNSKNTLYLQMNSLRAEDTAVYYCARDSGYFDIWGQGTLVTVSS
VL: NIQKTQSPSSLSASVGDRVTITCRALWHISSYLAWYQQKPGKAPKLLIYAASSLYSGVPSRFSGSGSGTDFTLTISSLQPEDFATYYCQQYSGLPYTFGQGTKVEIKR
One may read the koff as a measure of how fast the partners let go of each other. Read a high koff as fast dissociation. Consider B1, for which the koff with IL6 was 0.00413 s⁻¹; with VEGF it was 0.00204 s⁻¹.

B2: GH6L (bispecific antibody, V domains shown)
VH: WVQLVESGGGLVQPGGSLRLSCAAKGALFSTYAMSWIRQAPGKGLEWIGQISGSGGSTVYNYNVLGRFTISRDNSKNTLYLQMNSLRAEDTAVYYCARDSGYFDIWGQGTLVTVSS
VL: ATQRTQSPSSLSASVGDRVTITCRALWHISSYLAWYQQKPGKAPKLLIYAASWLYWDVPSRFSGSGSGTDFTLTISSLQPEDFATYYCQQYSGLPYTFGQGTKVEIK
What is called Kd is the concentration at which binding is half-saturated. Higher therefore signals lower affinity. Regarding B2, the values for the Kd in the assay with human IL6 [1] and in the assay with human IL6 [2] were 30.4 nM and 18.7 nM, respectively.

B3: Fab DT3 (bispecific antibody, V domains shown)
VH: WVQLVESGGGLVQPGGSLRLSCAARGFPFSHYAMSWIRQAPGKGLEWIGQISGSGGSTWYNHDIKGRFTISRDNSKNTLYLQMNSLRAEDTAVYYCARDSGYFDWWGQGTLVTVSS
VL: GIQMTQSPSSLSASVGDRVTITCRARWYISSYLAWYQQKPGKAPKLLIFAASRLILNVPSRFSGSGSGKDFTLTISSLQPEDFATYYCQQYSELPYTFGQGTKVEIK
As for B3, the results for the Kd in the assay with GST and with MBP were 17 nM and 313 nM, respectively.

B4: VH6L (bispecific antibody, V domains shown)
VH: YYQLVESGGGLVQPGGSLRLSCAADGFLFSGYAMSWIRQAPGKGLEWIGQISGSGGSTVYNYNVLGRFTISRDNSKNTLYLQMNSLRAEDTAVYYCARDTGYFDHWGQGTLVTVSS
VL: NIQKTQSPSSLSASVGDRVTITCRALWHISSYLAWYQQKPGKAPKLLIYAASHLHYGVPSRFSGSGSGTDFTLTISSLQPEDFATYYCQQYSGLPYTFGQGTKVEIK
Regarding B4, in the assay with human IL6 [3], the koff is 0.00472 s⁻¹.
